Measured values taken from PMC11326647, “In vitro reconstitution reveals membrane clustering and RNA recruitment by the enteroviral AAA+ ATPase 2C” (PLOS Pathogens, 2023).

Molecular target: His6-MBP-tagged poliovirus 2C([change]) (residues 1-11, 41-329) (poliovirus type 1 Mahoney) (UniProt P03300)
Test: mass photometry

His6-MBP-tagged poliovirus 2C([change]) (residues 1-11, 41-329) (from UniProt P03300 1128-1456) (natural protein)
stoichiometry N: 2
